The target of experiment [1] is eOD_VH1-2_v6.0 (HIV-1 HxB2 (engineered)). Briefly: SPR, IgG captured by anti-human IgG, eOD as analyte, 1:1 kinetic fit. On the technique in general: SPR reads the build-up and loss of mass on a sensor chip optically.
The next experiment has as its target eOD_L260F. Briefly: method not stated.
For another experiment, the target named is eOD_N276D. Briefly: method not stated.
Experiment [2] has as its target eOD_N276D_N463D. Briefly: method not stated.
Another experiment addresses eOD_L260F_N276D. The experiment in a line: method not stated.
For experiment [3], the target named is eOD_VH1-2_v4.0 (HIV-1 HxB2 (engineered)). The experiment in a line: method not stated.
The target in experiment [4] is eOD_VH1-2_v6.0 (HIV-1 HxB2 (engineered)). Briefly: dissociation constant, SPR (FIG. 2).
For experiment [5], the target named is core_gp120_VH1-2_v2.0 (HIV-1 BaL (engineered)). The experiment in a line: SPR.
Experiment [6] has as its target eOD_VH1-2_v1.0 (HIV-1 HxB2 (engineered)). The experiment in a line: SPR.
For experiment [7], the target named is eOD_VH1-2_v6.0 (HIV-1 HxB2 (engineered)). Briefly: dissociation constant, method not stated.
For experiment [8], the target named is c1d1_N386D displayed on yeast (S. cerevisiae). Briefly: Fab titration on yeast-displayed construct, flow cytometry.
For experiment [9], the target named is c1d1_v2 displayed on yeast (S. cerevisiae). The description is as above.
Experiment [10] addresses c1d1_b10disulf displayed on yeast (S. cerevisiae). The experiment is described as above.
A further experiment concerns the target eOD_VD(-)_g8. Briefly: Kd, method not stated; construct from 293 cells.
The target of a further experiment is eOD_VD(-)_g6. Briefly: Kd, method not stated; construct from 293 cells.
The target of the next experiment is eOD_VD(-)_g3. Briefly: Kd, method not stated; construct from 293 cells.
For another experiment, the target named is eOD_VD(-)_g5. Briefly: Kd, method not stated; construct from 293 cells.
The next experiment deals with eOD_VD(-)_g4. Briefly: Kd, method not stated; construct from 293 cells.
Another experiment deals with eOD_VD(-)_g7. The experiment in a line: Kd, method not stated; construct from 293 cells.
Another experiment has as its target eOD_VD(-)_g2. Briefly: Kd, method not stated; construct from 293 cells.
Experiment [11] addresses wild-type core GP120 (Human immunodeficiency virus type 1 group M subtype B (isolate HXB2) (HIV-1)) (UniProt P04578). Briefly: SPR, IgG captured by anti-human IgG, construct as analyte.
The target in experiment [12] is OD(D386) (Human immunodeficiency virus type 1 group M subtype B (isolate HXB2) (HIV-1)) (UniProt P04578). The experiment is described as above.
In experiment [13] the target is ODml(d1_disulf) (Human immunodeficiency virus type 1 group M subtype B (isolate HXB2) (HIV-1)) (UniProt P04578). Described as above.
The target of experiment [14] is c1d1_N386D. Described as above.
The next experiment deals with c2d1_b10disulf. The experiment is described as above.
The target in experiment [15] is c1d1_b2021. Described as above.
The target in experiment [16] is ODml(N386) (Human immunodeficiency virus type 1 group M subtype B (isolate HXB2) (HIV-1)) (UniProt P04578). Described as above.
The target in experiment [17] is c1d1_b10disulf. The experiment is described as above.
Experiment [18] deals with ODml(D386) (Human immunodeficiency virus type 1 group M subtype B (isolate HXB2) (HIV-1)) (UniProt P04578). Described as above.
The target of experiment [19] is c1d1_minglyc. The experiment is described as above.
Experiment [20] has as its target c1d1_v2. The description is as above.
Experiment [21] addresses c1d1_N386D. Briefly: ITC, b12 IgG. On the technique in general: In ITC the heat of successive injections is recorded.
In experiment [22] the target is ODml(d1_disulf) (Human immunodeficiency virus type 1 group M subtype B (isolate HXB2) (HIV-1)) (UniProt P04578). The experiment in a line: SPR.
For experiment [23], the target named is c1d1_N386D. Briefly: SPR.
In experiment [24] the target is c1d1_b2021. Briefly: SPR.
Experiment [25] deals with ODml(D386) (Human immunodeficiency virus type 1 group M subtype B (isolate HXB2) (HIV-1)) (UniProt P04578). The experiment in a line: SPR.
The target in experiment [26] is c1d1_minglyc. The experiment in a line: SPR.
The target in experiment [27] is c1d1_v2. The experiment in a line: SPR.
Experiment [28] addresses eOD_VH1-2_v6.0 (HIV-1 HxB2 (engineered)). Briefly: dissociation constant, SPR (FIG. 3).
Experiment [29] has as its target eOD_T257S_S375W (HIV-1 HxB2 (engineered)). Briefly: method not stated.
For the next experiment, the target named is eOD_T257S_L260F_S375W. The experiment in a line: method not stated.
In experiment [30] the target is c1d1_N386D. Briefly: SPR and ITC.
For experiment [31], the target named is eOD_N276D_N463D. The experiment in a line: method not stated; protein from 293 cells.
Experiment [32] deals with eOD_VH1-2_v6.0 (HIV-1 HxB2 (engineered)). Briefly: SPR, IgG captured by anti-human IgG, eOD as analyte, 1:1 fit with mass transport.
Experiment [33] addresses c1d1_N386D. Briefly: ITC.
Experiment [34] deals with c1d1_b10disulf. The experiment in a line: ITC.
Experiment [35] has as its target c1d1_v2. Briefly: ITC.
The target in experiment [36] is ODml(N386) (Human immunodeficiency virus type 1 group M subtype B (isolate HXB2) (HIV-1)) (UniProt P04578). The experiment in a line: SPR (value differs from Table 1).
For experiment [37], the target named is c1d1_N386D. Briefly: method not given.

Here are results for seven substances from patent US10221217.

One may read the Kd as the concentration at which binding is half-saturated. Higher therefore signals lower affinity. For orientation: koff means the rate constant with which the complex falls apart. A higher koff goes with fast dissociation. For orientation: kon means the rate constant with which the complex forms. Lower therefore signals slow association.

A value given as a limit tells only on which side of the number the result lay.

Consider germline VRC01 (antibody), for which the Kd in experiment [1] was 43.6 nM; in the experiment with eOD_L260F, above 500000 nM; with eOD_N276D, 640000 nM; in the experiment with eOD_N276D_N463D [2], 380000 nM; with eOD_L260F_N276D, 149000 nM; in experiment [3] it was 100 nM. The Kd in experiment [4] was determined as 44 nM; in experiment [5], 1600 nM; in experiment [6], 40000 nM. Besides, the koff in [1] was determined as 0.000683 s⁻¹. The substance also gave a kon in experiment [1] of 15700 M⁻¹ s⁻¹.
germline NIH45-46 (antibody): the Kd in [7] is 408 nM.
In the case of b12 Fab, the dissociation constant Kd in [8] stood at 21 nM; in experiment [9] it was 11 nM.
For the substance mature NIH45-46 (antibody), the Kd in experiment [7] is 3.8 nM.
Turning to VRC01 Fab, the Kd in [8], in experiment [9] and in [10] was above 50 nM each time.
On to b12 IgG (antibody), for which the dissociation constant Kd was determined as 7 nM in the experiment with eOD_VD(-)_g8; 514 nM in the experiment with eOD_VD(-)_g6; 21.6 nM in the experiment with eOD_VD(-)_g3; 132 nM in the experiment with eOD_VD(-)_g5; 76 nM in the experiment with eOD_VD(-)_g4; 421 nM with eOD_VD(-)_g7. Besides, the Kd was 96 nM with eOD_VD(-)_g2; 4.5 nM in experiment [11]; 1600 nM in experiment [12]; 175 nM in experiment [13]; 59 nM in the experiment with c1d1_N386D [14]; 148 nM in the experiment with c2d1_b10disulf. Also, the Kd worked out at 120 nM in the experiment with c1d1_b2021 [15]; 1900 nM in experiment [16]; 200 nM with c1d1_b10disulf [17]; 530 nM in experiment [18]; 31 nM with c1d1_minglyc [19]; 30 nM with c1d1_v2 [20]. In addition, the figures for the Kd with c1d1_N386D [21] and with c1d1_b2021 [24] were 65 nM and 148 nM, respectively. For the same substance, the fold improvement of KD over OD(D386) in experiment [22] was determined as 9 fold; in experiment [25] it was 3 fold. For the same substance, the fold improvement of KD over ODml worked out at 3 fold in [22] and 9 fold with c1d1_N386D [23]. The substance further yielded a fold improvement of KD over OD(386) with c1d1_N386D [23] of 28 fold. The substance also displayed a fold weaker KD than c1d1 N386D with c1d1_b2021 [24] of 2.5 fold. Also, the fold improvement of KD over c1d1 N386D with c1d1_minglyc [26] and in the experiment with c1d1_v2 [27] was 2 fold each time. This substance also had a fold improvement of KD over c1d1 b10disulf in the experiment with c1d1_v2 [27] of 8 fold.
On to VRC01 IgG (mature) (antibody), for which the Kd in the experiment with eOD_VD(-)_g8 amounted to 2.8 nM; in the experiment with eOD_VD(-)_g6, 4.6 nM; with eOD_VD(-)_g3, 4.7 nM; with eOD_VD(-)_g5 it was 15 nM; with eOD_VD(-)_g4 it was 7.3 nM; with eOD_VD(-)_g7 it was 109 nM. For the same substance, the Kd was determined as 7 nM in the experiment with eOD_VD(-)_g2; 1.7 nM in experiment [28]; 14.3 nM with eOD_L260F; 27.8 nM with eOD_N276D; 90 nM in [29]; 8.6 nM with eOD_T257S_L260F_S375W. Moreover, the Kd with eOD_L260F_N276D came to 11.9 nM; with eOD_N276D_N463D [31], 4 nM; in experiment [32] it was 1.7 nM; with c1d1_N386D [33], 200 nM; with c1d1_b10disulf [34], 100 nM; with c1d1_v2 [35], 100 nM. Besides, the dissociation constant Kd is 3.9 nM in experiment [11]; 139 nM with c1d1_N386D [14]; 289 nM with c2d1_b10disulf; 298 nM in experiment [16]; 7.5 nM in the experiment with c1d1_minglyc [19]; 249 nM in the experiment with c1d1_v2 [20]. In addition, the Kd in experiment [36] amounted to 530 nM; in the experiment with c1d1_N386D [37], 80 nM. Further, the fold weaker KD than core gp120 with c1d1_N386D [30] lay within 35 to 50 fold. For the same substance, the koff in [32] stood at 0.000251 s⁻¹. Also, the kon in experiment [32] turned out to be 148000 M⁻¹ s⁻¹. The same substance yielded a fold improvement of KD over c1d1 N386D with c1d1_b10disulf [34] of 2 fold. The same substance came in with a fold weaker affinity than core gp120 with c1d1_N386D [37] above 10 fold.
